Experimental data taken from PMC8803948, “TdfH selectively binds metal-loaded tetrameric calprotectin for zinc import” (Communications Biology, 2022).

Molecular target: the molecule itself
Experiment: cryo-EM structure; TdfH-CP complex formed on a StrepTactinXT column (CP preincubated with CaCl2 and ZnCl2), eluted with desthiobiotin, in PBS pH 7.4, 0.02% LMNG; Titan Krios 300 kV; 6.1 Å; CP seen as a dimer of S100A8-S100A9 heterodimers (heterotetramer)

B1: human calprotectin (CP), heterodimer of S100A8 and S100A9 (complex)
chain 1: MLTELEKALNSIIDVYHKYSLIKGNFHAVYRDDLKKLLETECPQYIRKKGADVWFKELDINTDGAVNFQEFLILVIKMGVAAHKKSHEESHKE
chain 2: KMSQLERNIETIINTFHQYSVKLGHPDTLNQGEFKELVRKDLQNFLKKENKNEKVIEHIMEDLDTNADKQLSFEEFIMLMARLTWASHEKMHEGDEGPGHHHKPGLGEGTP
notes: S100A8, human, subunit of calprotectin; S100A9, human, subunit of calprotectin; with calcium and zinc it stands as a heterotetramer (two heterodimers) in the cryo-EM complex; also called S100A8-S100A9 heterodimer; copies: 1 + 1
stoichiometry N: 2
